Molecular target: T1, KNL-2 central region (aa 269-470), recombinant (C. elegans, UniProt O44548 269-470)
T1 construct: The His9-MBP tag was cut off with TEV protease after mixing and before the pull-down; also called KNL-2 central fragment; source: E. coli BL21-Star, purified (MBP FF crude column, desalting); not shown: His9-MBP, N-terminal, cleaved
T1 sequence (looked up): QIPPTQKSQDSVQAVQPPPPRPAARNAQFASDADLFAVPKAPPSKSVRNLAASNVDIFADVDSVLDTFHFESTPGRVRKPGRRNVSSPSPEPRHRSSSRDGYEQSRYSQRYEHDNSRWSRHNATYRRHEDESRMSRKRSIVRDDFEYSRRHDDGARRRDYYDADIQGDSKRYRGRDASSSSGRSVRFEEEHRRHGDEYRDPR
Assay: pull-down; recombinant proteins mixed in equimolar amounts, 1 h at RT, TEV digestion 30 min at RT, glutathione magnetic agarose beads 1 h at RT; SDS-PAGE with Coomassie stain
Settings: both partners purified

binding result: binds
B1: CENP-A N-terminal tail (aa 1-179) fused to GST (domain or fragment, C. elegans, UniProt P34470 1-179, looked up)
chain: MADDTPIIEEIAEQNESVTRIMQRLKHDMQRVTSVPGFNTSAAGVNDLIDILNQYKKELEDDAANDYTEAHIHKIRLVTGKRNQYVLKLKQAEDEYHARKEQARRRASSMDFTVGRNSTNLVDYSHGRHHMPSYRRHDSSDEENYSMDGTNGDGNRAGPSNPDRGNRTGPSSSDRVRMR
notes: CENP-A homolog HCP-3, C. elegans, residues 1-179 (N-terminal tail); The His9-MBP tag was cut off with TEV protease after the two proteins had been mixed and before the pull-down on glutathione beads; also called His9-MBP-TEV-CENP-A^1-179-GST; GST::CENP-A N-terminal tail; source: E. coli BL21-Star, purified (Ni-charged chelating HiTrap column, desalting); not shown: His9-MBP, N-terminal, cleaved; …

From publication PMC8259991, “Transgenerational inheritance of centromere identity requires the CENP-A N-terminal tail in the C. elegans maternal germ line” (PLoS Biology, 2021)
